Experimental data taken from patent US20220305003A1, “METHODS OF TREATING CANCER WITH AN INHIBITOR OF ZNF827” (CHILDREN'S MEDICAL RESEARCH INSTITUTE, priority 2019, published 2022).

Columns and labels:
[1] = biological target: T1, topoisomerase 2-binding protein 1 (TOPBP1) (human, UniProt Q92547 1-1522); test: co-IP with Myc antibody, Western blot for TOPBP1
T1 construct: TOPBP1 in lysates of human cells, co-immunoprecipitated with Myc antibody
Procedure: (§1) Resuspended cells were lysed by incubation with rotation for 1 hour at 4° C. For Benzonase treatment to remove DNA, samples were incubated in the lysis buffer described above supplemented with 25 U Benzonase nuclease (Novagen, Merck Millipore) for 2 hours at 4° C. Lysates were subjected to centrifugation at 13,000 rpm for 40 minutes at 4° C. to remove cell debris. The supernatant was then transferred to a fresh cold low bind 1.5 mL tube for subsequent immunoprecipitation. For immunoprecipitation, protein lysates were incubated with antibody for the protein of interest (10 μg per mL lysate) or IgG control (Refer to Tables 4 and 5 for the list of antibodies used in this study), preincubated with Dynabeads Protein G, as per manufacturer's instructions (Life Technologies), with rotation overnight at 4° C. The following day, beads were washed three times in cold lysis buffer and separated on a magnetic rack. Proteins were then eluted from the beads by resuspension in 50 mM Glycine pH 2.8 and sodium dodecyl sulphate (SDS) sample buffer (0.2 M Tris-Cl, pH 6.8, 28% glycerol, 13.5% β-mercaptoethanol, 6% SDS, 6 mM EGTA, and 0.07% bromophenol blue) for 10 minutes at 70° C. and subjected to Western blot analysis, as described below, to detect various protein interactions. […]

[2] = biological target: T2, replication protein A (RPA), heterotrimeric complex (human, UniProt P27694 1-616; P15927 1-270; P35244 2-121); test: co-IP of Myc-DDK-tagged ZNF827 mutants, Western blot for RPA
T2 construct: Endogenous RPA of human cell lines, detected with an RPA2 (RPA32) antibody; also called detected through RPA32; RPA2
Procedure: as §1

T1 sequence (Q92547 whole entry): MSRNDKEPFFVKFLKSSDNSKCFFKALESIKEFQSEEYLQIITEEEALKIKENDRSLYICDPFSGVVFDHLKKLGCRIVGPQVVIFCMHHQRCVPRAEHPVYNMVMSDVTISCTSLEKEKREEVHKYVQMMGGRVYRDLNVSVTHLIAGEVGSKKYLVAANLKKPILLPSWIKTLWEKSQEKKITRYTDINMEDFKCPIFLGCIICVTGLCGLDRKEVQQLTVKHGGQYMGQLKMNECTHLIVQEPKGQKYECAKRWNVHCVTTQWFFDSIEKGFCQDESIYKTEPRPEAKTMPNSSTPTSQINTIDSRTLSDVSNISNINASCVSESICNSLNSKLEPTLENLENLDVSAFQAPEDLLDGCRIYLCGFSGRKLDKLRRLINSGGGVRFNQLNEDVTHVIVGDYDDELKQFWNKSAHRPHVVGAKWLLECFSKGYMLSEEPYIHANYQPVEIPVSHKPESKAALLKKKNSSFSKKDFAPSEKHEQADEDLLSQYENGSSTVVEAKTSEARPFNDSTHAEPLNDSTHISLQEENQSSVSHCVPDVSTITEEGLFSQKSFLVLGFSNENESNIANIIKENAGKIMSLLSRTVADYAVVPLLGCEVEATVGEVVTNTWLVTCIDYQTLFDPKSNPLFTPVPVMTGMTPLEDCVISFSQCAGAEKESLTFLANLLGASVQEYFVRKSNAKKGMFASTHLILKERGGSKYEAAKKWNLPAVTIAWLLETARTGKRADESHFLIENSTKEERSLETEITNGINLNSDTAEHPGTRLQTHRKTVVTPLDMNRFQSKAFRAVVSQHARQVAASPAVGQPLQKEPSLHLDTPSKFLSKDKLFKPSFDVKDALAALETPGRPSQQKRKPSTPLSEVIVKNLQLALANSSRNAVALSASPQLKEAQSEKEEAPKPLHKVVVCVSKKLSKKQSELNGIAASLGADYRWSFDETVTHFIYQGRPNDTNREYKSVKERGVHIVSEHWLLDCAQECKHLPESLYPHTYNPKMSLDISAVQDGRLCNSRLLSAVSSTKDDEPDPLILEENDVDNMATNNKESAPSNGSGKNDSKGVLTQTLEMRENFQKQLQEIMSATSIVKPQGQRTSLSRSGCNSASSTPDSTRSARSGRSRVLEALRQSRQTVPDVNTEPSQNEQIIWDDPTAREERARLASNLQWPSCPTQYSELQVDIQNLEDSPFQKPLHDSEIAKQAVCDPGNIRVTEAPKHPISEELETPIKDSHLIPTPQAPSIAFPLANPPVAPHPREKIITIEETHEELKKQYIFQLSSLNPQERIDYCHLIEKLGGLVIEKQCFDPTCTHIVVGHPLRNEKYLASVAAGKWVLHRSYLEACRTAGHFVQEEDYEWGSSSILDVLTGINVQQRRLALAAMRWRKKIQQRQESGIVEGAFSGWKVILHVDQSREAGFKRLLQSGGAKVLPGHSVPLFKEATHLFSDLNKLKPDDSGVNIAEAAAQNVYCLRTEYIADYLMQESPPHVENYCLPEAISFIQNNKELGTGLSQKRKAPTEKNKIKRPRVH
T2 sequence (P27694 whole entry, chain 1 of 3): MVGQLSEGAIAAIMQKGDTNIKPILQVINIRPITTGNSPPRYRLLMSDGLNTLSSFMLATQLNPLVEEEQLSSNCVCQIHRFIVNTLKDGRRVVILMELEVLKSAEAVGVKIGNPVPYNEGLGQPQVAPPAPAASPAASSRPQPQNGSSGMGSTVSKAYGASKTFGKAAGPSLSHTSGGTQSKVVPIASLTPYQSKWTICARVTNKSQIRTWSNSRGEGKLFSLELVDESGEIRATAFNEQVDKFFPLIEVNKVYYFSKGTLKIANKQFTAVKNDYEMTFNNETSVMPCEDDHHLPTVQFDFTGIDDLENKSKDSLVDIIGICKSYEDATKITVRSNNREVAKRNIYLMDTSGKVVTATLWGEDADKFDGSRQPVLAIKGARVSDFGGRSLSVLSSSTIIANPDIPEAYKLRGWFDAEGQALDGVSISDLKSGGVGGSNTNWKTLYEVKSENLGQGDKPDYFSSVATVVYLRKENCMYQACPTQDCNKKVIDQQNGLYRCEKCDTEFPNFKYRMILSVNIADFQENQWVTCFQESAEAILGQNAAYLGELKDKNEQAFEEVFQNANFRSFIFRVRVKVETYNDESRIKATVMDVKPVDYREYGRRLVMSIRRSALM
T2 sequence (P15927 whole entry, chain 2 of 3): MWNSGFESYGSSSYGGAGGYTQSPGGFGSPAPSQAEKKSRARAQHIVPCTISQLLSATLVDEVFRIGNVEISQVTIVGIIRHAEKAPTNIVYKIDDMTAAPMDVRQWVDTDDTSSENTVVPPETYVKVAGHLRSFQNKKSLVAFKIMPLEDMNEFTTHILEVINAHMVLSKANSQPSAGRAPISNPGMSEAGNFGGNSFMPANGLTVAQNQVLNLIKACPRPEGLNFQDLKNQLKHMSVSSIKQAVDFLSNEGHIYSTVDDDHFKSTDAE
T2 sequence (P35244 2-121 limits assumed, chain 3 of 3): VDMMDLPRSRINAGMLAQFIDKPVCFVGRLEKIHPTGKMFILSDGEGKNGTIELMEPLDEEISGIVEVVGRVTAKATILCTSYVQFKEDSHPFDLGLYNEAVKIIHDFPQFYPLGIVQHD

B1: ZNF827 mutant with no zinc fingers (ZnF1-9 deleted) (other)
chain: MPRRKQEQPKRLPSHVSRQEEAEGELSEGEHWYGNSSETPSEASYGEVQENYKLSLEDRIQEQSTSPDTSLGSTTPSSHTLELVALDSEVLRDSLQCQDHLSPGVSSLCDDDPGSNKPLSSNLRRLLEAGSLKLDAAATANGRVESPVNVGSNLSFSPPSHHAQQLSVLARKLAEKQEQNDQYTPSNRFIWNQGKWLPNSTTTCSLSPDSAILKLKAAANAVLQDKSLTRTEETMRFESFSSPFSSQSASSTLAALSKKVSERSLTPGQEHPPPASSFLSLASMTSSAALLKEVAARAAGSLLAEKSSLLPEDPLPPPPSEKKPEKVTPPPPPPPPPPPPPPPQSLELLLLPVPKGRVSKPSNSASEEESGKPQHFLRTEAKVKEEIPDPDVKGSPHLSDSACLGQQREGGGTELVGTMMTSNTPERTSQGGAGVSPLLVKEEPKEDNGLPTSFTLNAADRPATRTRPLEQKLISEEDLAANDILDYKDDDDKV
notes: also called ZnF1-9d mutant
B1: no binding [1]; no binding [2].
